Measurements as given in article PMC7802950, “Characteristics and expression patterns of six α-galactosidases in cucumber (Cucumis sativus L.)” (PLoS ONE, 2021).

Tests used:
Details in all cases: pH and temperature of Km assay not stated
[1] = system: O=[N+]([O-])c1ccc(O[C@H]2O[C@H](CO)[C@H](O)[C@H](O)[C@H]2O)cc1; assay: purified protein
[2] = system: T1, OC[C@H]1O[C@H](OC[C@H]2O[C@H](OC[C@H]3O[C@H](O[C@]4(CO)O[C@H](CO)[C@@H](O)[C@@H]4O)[C@H](O)[C@@H](O)[C@@H]3O)[C@H](O)[C@@H](O)[C@H]2O)[C@H](O)[C@@H](O)[C@H]1O; assay: Lineweaver-Burk plot, hydrolysis; format: biochemical, Cucumis sativus
T1 construct: coding region in pAcHLT, baculovirus/Sf9 insect cells; 6xHis tag removed by thrombin

[3] = system: T2, OC[C@H]1O[C@H](OC[C@H]2O[C@H](O[C@]3(CO)O[C@H](CO)[C@@H](O)[C@@H]3O)[C@H](O)[C@@H](O)[C@@H]2O)[C@H](O)[C@@H](O)[C@H]1O; assay: Lineweaver-Burk plot, hydrolysis; format: biochemical, Cucumis sativus
T2 construct: coding region in pAcHLT, baculovirus/Sf9 insect cells; 6xHis tag removed by thrombin

Sequence of CsGAL2 (Cucumis sativus) (chain, as listed by the source): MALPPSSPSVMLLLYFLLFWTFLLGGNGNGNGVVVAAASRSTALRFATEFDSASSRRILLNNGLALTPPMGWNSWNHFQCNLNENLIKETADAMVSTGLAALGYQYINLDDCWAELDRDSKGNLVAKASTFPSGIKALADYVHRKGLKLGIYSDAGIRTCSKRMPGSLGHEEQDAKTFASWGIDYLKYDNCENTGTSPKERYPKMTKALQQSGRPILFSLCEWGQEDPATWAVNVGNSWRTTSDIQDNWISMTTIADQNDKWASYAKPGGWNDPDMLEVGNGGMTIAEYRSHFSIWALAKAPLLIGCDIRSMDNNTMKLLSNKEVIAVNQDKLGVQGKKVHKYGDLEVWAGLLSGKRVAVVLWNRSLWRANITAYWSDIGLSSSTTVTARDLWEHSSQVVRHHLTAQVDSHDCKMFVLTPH
Sequence of CsGAL1 (Cucumis sativus) (chain, as listed by the source): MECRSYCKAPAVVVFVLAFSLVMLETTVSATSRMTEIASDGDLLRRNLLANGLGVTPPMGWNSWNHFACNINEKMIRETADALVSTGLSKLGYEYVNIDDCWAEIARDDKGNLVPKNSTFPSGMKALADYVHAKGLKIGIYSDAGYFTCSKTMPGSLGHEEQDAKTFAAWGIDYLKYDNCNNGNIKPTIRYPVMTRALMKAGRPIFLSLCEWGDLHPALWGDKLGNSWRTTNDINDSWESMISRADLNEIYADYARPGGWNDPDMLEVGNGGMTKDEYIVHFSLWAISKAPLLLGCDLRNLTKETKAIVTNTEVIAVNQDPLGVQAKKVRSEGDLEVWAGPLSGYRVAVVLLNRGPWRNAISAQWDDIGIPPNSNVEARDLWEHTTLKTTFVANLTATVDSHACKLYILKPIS
Sequence of CsGAL3 (Cucumis sativus) (chain, as listed by the source): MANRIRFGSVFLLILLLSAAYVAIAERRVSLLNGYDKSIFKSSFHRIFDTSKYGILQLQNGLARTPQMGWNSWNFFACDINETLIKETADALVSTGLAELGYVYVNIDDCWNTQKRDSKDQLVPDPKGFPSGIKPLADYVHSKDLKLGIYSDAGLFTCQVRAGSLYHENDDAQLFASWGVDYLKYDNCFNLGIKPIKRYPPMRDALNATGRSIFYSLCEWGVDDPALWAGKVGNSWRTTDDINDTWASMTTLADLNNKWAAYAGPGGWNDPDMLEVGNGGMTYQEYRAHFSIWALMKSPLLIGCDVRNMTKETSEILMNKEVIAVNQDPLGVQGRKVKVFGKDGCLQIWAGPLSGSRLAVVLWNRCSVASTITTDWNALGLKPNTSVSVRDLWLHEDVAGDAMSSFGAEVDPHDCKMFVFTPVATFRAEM

## CsGAL3 (Cucumis sativus)
[1]
  Km: 0.99 ± 0.10 mM
[2]
  Km: 18.92 ± 2.56 mM
[3]
  Km: 3.24 ± 0.70 mM

## CsGAL2 (Cucumis sativus)
[1]
  Km: 1.35 ± 0.23 mM
[2]
  Km: 11.85 ± 2.05 mM
[3]
  Km: 5.63 ± 0.67 mM

## CsGAL1 (Cucumis sativus)
[1]
  Km: 0.89 ± 0.12 mM
[2]
  Km: 12.3 ± 1.92 mM
[3]
  Km: 4.71 ± 0.85 mM
